± gives the uncertainty stated by the source.
Assay: amyloid nucleation score (Sup35N fusion, yeast selection) (log enrichment); library NNK1; higher = more nucleation; inactive = no reads after selection
In short: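 Nucleation score is defined as the DiMSum log enrichment of output over input reads, with centring on the mode score of non-aggregating sequences. A minimum of 100 input reads was required for each sequence. Reads came from Illumina sequencing of plasmid inserts from psi-negative yeast expressing Sup35N fused to peptides of 20 random codons, induced with 100 μM copper sulfate for 24 hours and grown 7 days at 30°C on medium lacking adenine and uracil.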

Row | Substance | amyloid nucleation score
1 | DLHLTNVSTRARPRLGLAAR | 0.705 ± 0.56
2 | DLIWNSSFVRLNVTNPLMFR | inactive
3 | DLLFAVYYELEHGFERVAGR | 4.78 ± 0.081
4 | DLNNGDAKSDRFYGSFLHSW | -0.612 ± 0.32
5 | DLRAVNLNSYSLLDSFTCFF | 5.59 ± 0.06
6 | DLVTH | 0.015 ± 0.83
7 | DLYGACEMWCAENSYGRFSV | 0.107 ± 0.95
8 | DMCNLTRLPLVYFM | -0.037 ± 1.7
9 | DMIKNAVNILLMMSVF | -0.399 ± 0.28
10 | DMPTS | 0.45 ± 0.75
11 | DNGLGKCSMQPEWHRAWGAR | 2.06 ± 0.13
12 | DNTWLFVAL | 0.918 ± 0.35
13 | DPTTLYIEV | 1.29 ± 0.39
14 | DPVSIMTGRQDPRGCGVTCF | -1.96 ± 2.7
15 | DPVYGLYGALFAMNPFMDYL | -0.427 ± 0.56
16 | DQGSWFH | -0.31 ± 1.1
17 | DQNVAPYVSKHGVQTILKRD | -1.51 ± 1.9
18 | DQSILRLYAWALRPGELELR | 3.15 ± 0.14
19 | DRFVVVLCFTDQ | 0.452 ± 0.46
20 | DRIFDHGIHMFSIVGQDLFT | inactive
21 | DRLWIWQGNIVASIYKSCLL | 5.41 ± 0.068
22 | DRRSIAGFHCCWNSKVMVSP | -0.83 ± 0.88

Row | Substance | amyloid nucleation score
23 | DRVWCHETKRSFYIMCKNNI | 0.052 ± 0.24
24 | DRYVYEFSYVLFWLFILVM | 0.128 ± 0.44
25 | DSELRMVISLYFCWLWSEWS | -0.623 ± 0.6
26 | DSGLLMKVSWKSDNC | -0.284 ± 0.39
27 | DSNATTHVRMKVSLTGRFLR | 4.8 ± 0.056
28 | DSNPNFCRLIKYVRNDCRTP | 0.012 ± 0.26
29 | DSPGSSGCKGATVHMSFTWG | 0.731 ± 0.61
30 | DSQFAVKFCAR | inactive
31 | DSRDVNSSLIIRVRVEDGTL | -1.2 ± 1.5
32 | DSVLLRFYDCCEMFYLHSLL | 0.48 ± 0.67
33 | DTFCQL | -0.147 ± 1.1
34 | DTLVDVVFDADVV | 0.26 ± 0.28
35 | DTNFYLFMTHG | 0.244 ± 1
36 | DTPRCRGVS | -0.197 ± 1.2
37 | DTSFYIMLNYITIQYNSFAG | 7.86 ± 0.054
38 | DTSNHEGE | -0.554 ± 1.7
39 | DTVVGSAFCQGMYLSESVML | 1.56 ± 0.76
40 | DVANRVVSSFLIC | -0.525 ± 0.45
41 | DVAYRGSGYGFSYFYFGMFS | 0.547 ± 0.5
42 | DVCASGRKIVRFFPMSARAQ | inactive
43 | DVDYLYPLYLVAGFMTNVRK | 0.535 ± 0.25
44 | DVGLFMK | -0.686 ± 0.53

Row | Substance | amyloid nucleation score
45 | DVKFVVFSNRAWVCTSASKW | 4.01 ± 0.11
46 | DVLLFL | -0.779 ± 1.3
47 | DVMAVCGIGRKYLIWYSCVR | -1.54 ± 0.79
48 | DVMLNCCGYCAPGGWVVVFS | 5.33 ± 0.089
49 | DVRAWVMARVGRGSELGARG | 0.075 ± 0.84
50 | DVRLRRYEGGQSSVTSHHDN | 0.028 ± 0.53
51 | DVTAPRLQIGLKVKHMKPFF | 0.423 ± 0.42
52 | DWAGMCFANSIHMDMLDRVL | 0.336 ± 0.4
53 | DWQMMVYRNAFLPR | -1.32 ± 1.3
54 | DYLVQGLHILVKWGYDRTDG | -0.187 ± 0.5
55 | DYRLKLLYYSSWSVLLYFVG | -0.142 ± 0.21
56 | DYRYTNCCWQSPKRRGWQSY | 0.967 ± 0.59
57 | DYVYHKAWKVKGTRAWKESL | -0.266 ± 1.4
58 | EAGLCSK | -0.316 ± 0.45
59 | ECDRCYSYGCVDHKAALG | 0.629 ± 0.72
60 | ECTCSIK | 0.03 ± 0.22
61 | ECVTCSWF | 0.011 ± 0.38
62 | EDCIWYVVGH | -2.18 ± 2.4
63 | EDEYQDPTTGVIHVVMGTCV | 0.044 ± 1.1
64 | EDMPFMTLKVIVFVTLMHLR | 2.02 ± 0.62
65 | EDMWNFDRSHGLWYEGTSAM | 0.72 ± 0.69
66 | EEDII | 1.96 ± 0.26

Row | Substance | amyloid nucleation score
67 | EEPLIGLDKMPYPGTVYEIA | 0.066 ± 0.87
68 | EERRMSWWFERGCKLAVELS | -0.614 ± 0.8
69 | EFGRGSNRVEFIMGASLALT | 1.09 ± 0.17
70 | EFIGFRLFIQVNSDFM | 1.69 ± 0.23
71 | EFLDELSGVVYSLLGYEVTR | 2.63 ± 0.13
72 | EFNDCGSLWFGFIRYIILMN | 0.081 ± 0.25
73 | EFTRRAYYDRNAQLFHMDQC | 2.19 ± 0.18
74 | EGATWIFQYLAGGVG | -0.534 ± 0.34
75 | EGICNYSSKYCQGMVLIGSS | -1.52 ± 1.5
76 | EGMFFRGSLSK | 3.31 ± 0.16
77 | EGNLVLSMLMY | -0.198 ± 0.47
78 | EGVHNSRKVEPGVKFGSGAR | 0.621 ± 1
79 | EHLISYATYEVLVSTWNSFE | inactive
80 | EHWSRSVGSHASVWFVAPAG | inactive
81 | EICYRMICCYSN | 0.085 ± 0.66
82 | EINKLS | -1.27 ± 1.1
83 | EIRQVECLTCMRQ | -0.839 ± 1.2
84 | EKGKLCKG | -0.101 ± 0.84
85 | EKMHQSYLSRYYIDR | 1.12 ± 0.54
86 | EKNYRICGFMGLLLFRIE | inactive
